From FireProtDB (doi:10.1074/jbc.271.51.32729)

Conditions: Escherichia coli (strain K12), Thermal, CD, reversible: yes, whole UniProt chain shown

B1: Ribonuclease HI wild type, P0A7Y4 (protein)
chain: MLKQVEIFTDGSCLGNPGPGGYGAILRYRGREKTFSAGYTRTTNNRMELMAAIVALEALKEHCEVILSTDSQYVRQGITQWIHNWKKRGWKTADKKPVKNVDLWQRLDAALGQHQIKWEWVKGHAGHPENERCDELARAAAMNPTLEDTGYQVEV
pH 3, glycine-HCl 10 mM
  Tm: 50 °C
  unfolding enthalpy (van 't Hoff): 95.1 kcal/mol
pH 9, glycine-NaOH 50 mM
  Tm: 47 °C
